Article doi:10.1101/2020.09.18.301952

Molecular target: stabilized soluble SARS-CoV-2 S protein trimer (SARS-CoV-2) (UniProt P0DTC2)
Assay: cryo-EM structure

monomeric soluble ACE2 (ACE2_(615)) (from UniProt Q9BYF1 18-615) (domain or fragment)
stoichiometry N (ACE2 per S trimer): 3
